Source: patent US20230143003A1 (JULIUS MAXIMILIANS UNIVERSIT T W RZBURG, published 2023)
Numbering of substitutions follows the chain as printed. Like-named read-outs stand apart in the source and are kept apart here.

B1: hX3.12.8 Fab (Fab, V domains shown)
VH: EQQVVESGGGLVQPGGSLRLSCAASGFSLSSYGVTWVRQAPGKGLEWVGYINTAGNTYYASWAKSRFTISRDNSKNTVYLQMNSLRAEDTAVYYCARDDRWSLNIWGQGTLVTVSS
VL: DPMLTQSPSSLSASVGDRVTITCQASQSISSDLSWYQQKPGKAPKLLIYQASTLASGVPSRFKGSGYGTEYTLTISSLQPEDFATYYCLGGYADASYRTAFGGGTKLEIK
notes: The text says that hX3.12.5 to hX3.12.8 all utilized VL2
B2: h401.6 Fab (hX3.12.6 framework regions with parental 401 CDR sequences) (Fab, V domains shown)
VH: EVQLVESGGGLVQPGGSLRLSCAASGFTFSSYGVTWVRQAPGKGLEWVSYINTAGNTYYASWAKSRFTISRDNAKNSLYLQMNSLRAEDTAVYYCARDWTSLNIWGQGTLVTVSS
VL: B1 VL
notes: this is an inference
B3: XBR2-401-hX3.12.5 Fab (affinity matured and humanized) (Fab, V domains shown)
VH: B1 VH with Q2V, V4L, V12I, S28T, L29V, G49S, V78L
VL: B1 VL
notes: Fab expressed in E. coli
B4: hX3.12.7 Fab (Fab, V domains shown)
VH: B1 VH with A24V, V48I, D72N, N73T, S74N, K75E, Y94F
VL: B1 VL
notes: as for B1
B5: XBR2-401-hX3.12.6 Fab (affinity matured and humanized) (Fab, V domains shown)
VH: B1 VH with Q2V, V4L, S28T, L29F, G49S, S74A, T77S, V78L
VL: B1 VL
notes: Fab expressed in E. coli
B6: X3.6 (Fab, V domains shown)
VH: QSVKESEGGLFKPTDTLTLTCTVSGFSLSSYGVTWVRQAPGSGLEWIGYINTAGNTYYASWAKSRSTITRNTNENTVTLKMTSLTAADTATYFCARDSRNSLNIWGPGTLVTVSS
VL: DPMLTQTPSSTSTAVGDTVTIKCQASQSISSDLSWYQQKPGQRPKLLIYQASTLASGVPSRFKGSGYGTEYTLTISGVQREDAAIYYCLGGYADASYRTAFGGGTKLEIK
notes: one of the top 12 chimeric rabbit/human anti-human ROR2 Fabs selected from the focused HCDR3 mutagenesis library
B7: X4.21 (Fab, V domains shown)
VH: QSVKESEGGLFKPTDTLTLTCTVSGFSLSSYGVTWVRQAPGSGLEWIGYINTAGNTYYASWAKSRSTITRNTNENTVTLKMTSLTAADTATYFCARDSGVVSLNIWGPGTLVTVSS
VL: B6 VL
notes: as for B6
B8: XBR2-401 Fab (parental chimeric rabbit/human anti-human ROR2 Fab) (Fab, V domains shown)
VH: QSVKESEGGLFKPTDTLTLTCTVSGFSLSSYGVTWVRQAPGSGLEWIGYINTAGNTYYASWAKSRSTITRNTNENTVTLKMTSLTAADTATYFCARDWTSLNIWGPGTLVTVSS
VL: B6 VL
notes: Chimeric rabbit/human Fab (rabbit variable domains, human constant domains, kappa light chain, His tag)
B9: X4.35 (Fab, V domains shown)
VH: B7 VH with G99R, V100R, V101K
VL: B6 VL
notes: as for B6
B10: X2.23 (Fab, V domains shown)
VH: B8 VH with W98Y
VL: B6 VL
notes: as for B6
B11: X4.3 (Fab, V domains shown)
VH: B7 VH with S98W, V100N, V101W
VL: B6 VL
notes: as for B6
B12: X3.13 (Fab, V domains shown)
VH: B6 VH with S98K, R99G, N100W
VL: B6 VL
notes: as for B6
B13: X3.21 (Fab, V domains shown)
VH: B6 VH with S98G, R99L, N100T
VL: B6 VL
notes: as for B6
B14: X2.12 (Fab, V domains shown)
VH: B8 VH with W98T, T99M
VL: B6 VL
notes: as for B6
B15: X4.12 (Fab, V domains shown)
VH: B7 VH with S98Y, G99M, V100M, V101N
VL: B6 VL
notes: as for B6
B16: X2.7 (Fab, V domains shown)
VH: B8 VH with W98S, T99M
VL: B6 VL
notes: as for B6
B17: X4.9 (Fab, V domains shown)
VH: B7 VH with S98N, V100S, V101T
VL: B6 VL
notes: as for B6

How the values were obtained:
[1] = molecular target: T1, hROR2-Fc (human ROR2 Fc fusion protein) (human, UniProt Q01974 34-403, limits assumed); test: SPR, Biacore X100; hROR2-Fc captured, Fab injected
T1 construct: Given both as hROR2-Fc and as Fc-hROR2, so the order of the two parts is not certain; also called Fc-hROR2; not shown: human Fc part (captured by a mouse anti-human IgG CH2 / Fcγ mAb)

[2] = molecular target: T1, hROR2-Fc (human ROR2 Fc fusion protein); test: SPR (Biacore X100), Fc-hROR2 captured on CM5 chip via mouse anti-human Fcγ mAb, Fab as analyte, 1:1 binding model
Procedure: (§1) A CM5 chip immobilized with a mouse anti-human Fcγ mAb was used to capture Fc-hROR2.
(§2) Kinetic and thermodynamic parameters for the ROR2 binding of purified anti-ROR2 Fab variants were measured by use of SPR as previously described [29], performed on a Biacore X100 instrument using Biacore reagents and software (GE Healthcare). Briefly, a CM5 sensor chip was immobilized with a mouse anti-human IgG CH2 mAb in order to capture the hROR2-Fc antigen.

[3] = molecular target: T2, human ROR1 on cells (MDA-MB-231, ROR2-, ROR1+; also 786-O, ROR2+, ROR1+) (human, UniProt Q01973 30-937); test: flow cytometry on MDA-MB-231 cells (ROR2-, ROR1+); Fab followed by PE-conjugated goat anti-human F(ab')2 pAbs
T2 construct: whole, on cells
Procedure: Cells were analyzed using a FACSCanto instrument (BD Biosciences) and FlowJo analytical software (Tree Star).

[4] = molecular target: T1, hROR2-Fc (human ROR2 Fc fusion protein); test: SPR (Biacore X100), Fc-hROR2 captured on CM5 chip via mouse anti-human Fcγ mAb, Fab as analyte, 1:1 binding model; remark: listed apart in the source
Procedure: as §1, §2

Row | Binder | Kd [1] [nM] | koff [2] [s⁻¹] | kon [2] [M⁻¹ s⁻¹] | binding result [3] | Kd [4] [nM] | koff [4] [s⁻¹] | kon [4] [M⁻¹ s⁻¹]
1 | B1 | 5.2 | 0.00067 | 130000 | – | – | – | –
2 | B2 | 16 | 0.00023 | 14000 | no binding | – | – | –
3 | B3 | 2.6 | 0.00048 | 190000 | no binding | – | – | –
4 | B4 | 1.4 | 0.00016 | 110000 | – | – | – | –
5 | B5 | 3.8 | 0.00022 | 60000 | no binding | – | – | –
6 | B6 | – | – | – | – | 3.2 | 0.00019 | 60000
7 | B7 | – | – | – | – | 3.4 | 8.1e-05 | 24000
8 | B8 | – | – | – | – | 7 | – | –
9 | B9 | – | – | – | – | 31 | 0.0017 | 54000
10 | B10 | – | – | – | – | 1.4 | 4.7e-05 | 33000
11 | B11 | – | – | – | – | 1.3 | 3.8e-05 | 30000
12 | B12 | – | – | – | – | 1.1 | 2.7e-05 | 26000
13 | B13 | – | – | – | – | 1.9 | 9.2e-05 | 49000
14 | B14 | – | – | – | – | 1.2 | 4e-05 | 34000
15 | B15 | – | – | – | – | 2.8 | 0.00015 | 53000
16 | B16 | – | – | – | – | 1.5 | 0.0001 | 69000
17 | B17 | – | – | – | – | 10 | 0.00034 | 33000
